Earlier results as cited in US10786531B2, “Mineral salt-sulfonic acid compositions and methods of use” (BMG PHARMA SPA, priority 2009, dated 2020).

Conditions: animal studies

B1: lactoferrin: globular, cationic, non-heme iron-binding protein (protein, UniProt P02788 20-710, looked up)
Lactotransferrin: GRRRSVQWCAVSQPEATKCFQWQRNMRKVRGPPVSCIKRDSPIQCIQAIAENRADAVTLDGGFIYEAGLAPYKLRPVAAEVYGTERQPRTHYYAVAVVKKGGSFQLNELQGLKSCHTGLRRTAGWNVPIGTLRPFLNWTGPPEPIEAAVARFFSASCVPGADKGQFPNLCRLCAGTGENKCAFSSQEPYFSYSGAFKCLRDGAGDVAFIRESTVFEDLSDEAERDEYELLCPDNTRKPVDKFKDCHLARVPSHAVVARSVNGKEDAIWNLLRQAQEKFGKDKSPKFQLFGSPSGQKDLLFKDSAIGFSRVPPRIDSGLYLGSGYFTAIQNLRKSEEEVAARRARVVWCAVGEQELRKCNQWSGLSEGSVTCSSASTTEDCIALVLKGEADAMSLDGGYVYTAGKCGLVPVLAENYKSQQSSDPDPNCVDRPVEGYLAVAVVRRSDTSLTWNSVKGKKSCHTAVDRTAGWNIPMGLLFNQTGSCKFDEYFSQSCAPGSDPRSNLCALCIGDEQGENKCVPNSNERYYGYTGAFRCLAENAGDVAFVKDVTVLQNTDGNNNEAWAKDLKLADFALLCLDGKRKPVTEARSCHLAMAPNHAVVSRMDKVERLKQVLLHQQAKFGRNGSDCPDKFCLFQSETKNLLFNDNTECLARLHGKTTYEKYLGPQYVAGITNLKKCSTSPLLEACEFLRK
dose well tolerated with minimum toxic effects: 2000 mg/kg/day
